In the RNAGym collection of RNA variant scans (doi:10.7554/elife.80360) one finds self-cleavage data, which are given here for 167 variants.

The labels stand for the following.
B1: Twister Ribozyme (parent)
chain: AACACUGCCAAUGCCGGUCCCAAGCCCGGAUAAAAGUGGAGGGGGCGG

The variants in this data set derive from B1. Kind of data set: self-cleavage, relative activity (ratio to wild type); higher = more cleavage; co-transcriptional.
On to G16C A35U, for which the self-cleavage worked out at 0.577. Under G17A A34C stands 0.0806. Under G17C A34C stands 0.0523.

With G16C G48A, the self-cleavage stood at 0.473. For the variant G16C G48U, the self-cleavage was 0.414. On to G16C G48C, for which the self-cleavage amounted to 0.709. Regarding G16A A35U, the self-cleavage was 1.05. Under G16A A35C stands 0.927; under G16A A35G, 0.555; under C15U C46U, 0.917.

Consider G16C G17A, for which the self-cleavage worked out at 0.124. Under C15U U31A stands 0.785. Consider G16A C21A, for which the self-cleavage came to 0.104. In the case of G16C G38U it was 0.535; in that of G16C G38A, 0.676. With G17U C19G, the self-cleavage is 0.111. In the case of G17U C19U it was 0.143. For G16U A40C, the self-cleavage turned out to be 0.156. Under G16U A40U stands 0.137; under G16U C19A, 0.284; under G16U C19U, 0.697. In the case of G16U C19G it was 0.342; in that of G17A G44U, 0.704; in that of G17A A35G, 0.262. Under G17A A35C stands 0.637; under G16C G29C, 0.117. G16C G29A: the self-cleavage turned out to be 0.222. As to G16A A33G, the self-cleavage was found to be 0.892. Under G17U G36U stands 0.0806; under G17U G36C, 0.14; under G17A C19A, 0.104. Under G17A C19U stands 0.281; under G17A C19G, 0.14. In the case of G16U G29U it was 0.87; in that of G16U U31A, 1.05; in that of G16U U31C, 0.725. Regarding G17C G36U, the self-cleavage stood at 0.0484. With G17C G36C, the self-cleavage came to 0.0812. On to G17C A23C, for which the self-cleavage is 0.092. For G17C A23G, the self-cleavage amounted to 0.0841.

On to G17C A23U, for which the self-cleavage turned out to be 0.0824. In the case of G16A C19U it was 0.826; in that of G16A C19A, 0.241. In the case of G17U C26A it was 0.719. As to G16U G47C, the self-cleavage worked out at 0.426.

In the case of G16A G28U, the self-cleavage was 0.607.

As for G16A G42A, the self-cleavage was found to be 0.358. Consider G16A G42U, for which the self-cleavage was determined as 0.197. In the case of G16U A32C it was 1.1; in that of C15U C27G, 0.0731.

With C15U C27A, the self-cleavage is 0.105.

C15U U37G: the self-cleavage was 0.568.

As to C15U U37C, the self-cleavage was determined as 0.295. Under C15U U37A stands 0.559. G16A U18C: the self-cleavage worked out at 0.41.

As to G16A U18A, the self-cleavage turned out to be 0.482. In the case of G16U G48U it was 0.843; in that of G16U G48A, 0.898; in that of G16U G48C, 1.06.

G16A C26A: the self-cleavage was 0.437. As to G16A C26U, the self-cleavage amounted to 0.107. In the case of G16U U18C it was 0.351; in that of G16A U31G, 0.996. In the case of G17C A22U it was 0.0369; in that of G17C A22C, 0.123; in that of G17A G41U, 0.169. Under G17A G41A stands 0.148; under G17C G41U, 0.0841.

G17C G41C: the self-cleavage was found to be 0.104.

On to G17C G41A, for which the self-cleavage was 0.0738. For the variant G16U G39C, the self-cleavage stood at 0.173. In the case of G16C G43U it was 0.11; in that of G16C G43C, 0.161; in that of G17A G42C, 0.192. G17A G42U: the self-cleavage was 0.135. Consider G17A U18C, for which the self-cleavage was determined as 0.221. In the case of G17A U18G it was 0.123; in that of G17A U18A, 0.18. Under G16U G17U stands 0.231.

Take G16U G17A: the self-cleavage came out at 0.0957. In the case of G16A U37A it was 0.457. In the case of G16A U37C it was 0.335; in that of G16C G44A, 0.803; in that of G16C G44U, 0.81. Under G16C G44C stands 0.649; under G16A G43A, 0.261. For G17C G45C, the self-cleavage worked out at 0.0995. In the case of G17C G45U it was 0.107; in that of G17C G29C, 0.0728. Under G16A A34C stands 0.174. In the case of G16A A34G it was 0.574; in that of G16A C27A, 0.858. With G16A C27U, the self-cleavage was found to be 1.17. Under G17C U31C stands 0.115; under G17C U31G, 0.139; under G16A G36U, 0.174. Regarding G16A G36C, the self-cleavage came out at 0.133.

With G17C C46U, the self-cleavage came out at 0.144.

As to G17C C46G, the self-cleavage worked out at 0.139. Under G17C U37G stands 0.0835.

G17C U37C: the self-cleavage was determined as 0.0657. In the case of G17C U37A it was 0.0865; in that of G16C U31C, 0.429; in that of G16C U31A, 0.657.

For the variant G17U C21A, the self-cleavage was 0.0909. Regarding G17U C21G, the self-cleavage stood at 0.064. G17C A32G: the self-cleavage stood at 0.129. In the case of G17C A32C it was 0.0792; in that of G17A C20A, 0.0884; in that of G17A C20G, 0.0402. Under G17U A22G stands 0.103. Under G17U C25G stands 0.0862. In the case of G17U C25A, the self-cleavage stood at 0.0904. In the case of G16A G47A, the self-cleavage is 0.702. Under G16A G47C stands 0.351.

On to G16A A32G, for which the self-cleavage was 0.888.

Regarding G16A A32U, the self-cleavage came out at 0.919.

As for G17U G38U, the self-cleavage was determined as 0.158. For the variant G16C C20U, the self-cleavage was found to be 0.489.

Take G17A U37A: the self-cleavage is 0.207.

As for G17U G24A, the self-cleavage worked out at 0.101. In the case of G17A G43A it was 0.156; in that of G16U A35U, 0.948. Under G16U A35G stands 0.765; under G16U A35C, 0.961.

Turning to C15U G28C, the self-cleavage was found to be 0.988.

On to G17A G38A, for which the self-cleavage was found to be 0.498. In the case of G16A G45C it was 0.595.

Turning to G16A G45U, the self-cleavage stood at 0.858. Under G17C A33C stands 0.0741; under G16U C20U, 0.797. Under G16U C20A stands 0.109.

Regarding G16U C20G, the self-cleavage stood at 0.098.

G17U G45C: the self-cleavage was determined as 0.183. In the case of G17U G45U it was 0.221; in that of G17U G41C, 0.0885; in that of G17U G41A, 0.103. In the case of G17U G41U it was 0.101; in that of G16C A30C, 0.363. In the case of G16C C26U it was 0.171. Regarding G16C C26G, the self-cleavage is 0.0968.

Turning to G17U G42C, the self-cleavage was found to be 0.126. In the case of G17U G42A it was 0.104; in that of C15U G41A, 0.483. Regarding C15U G41U, the self-cleavage worked out at 0.452. Under G17A G24U stands 0.0891; under G17A G24C, 0.128.

For G16C G24U, the self-cleavage came out at 0.0773. Under G16U U37G stands 0.409; under G16U U37A, 0.436.

Take G16U A33G: the self-cleavage amounted to 0.597. In the case of G16U A33U it was 0.88; in that of G16U A33C, 0.66; in that of G17C G39C, 0.0888.

With G17C G39U, the self-cleavage is 0.0818. As to C15U G36C, the self-cleavage is 0.204. Under G17C C25G stands 0.0833. Turning to G17C C20U, the self-cleavage was 0.0836.

G17C C20A: the self-cleavage is 0.0695. In the case of G16C U18G it was 0.116; in that of C15U U18G, 0.0578; in that of C15U U18C, 0.396. In the case of G16A G41A it was 0.364; in that of C15U G43A, 0.225; in that of C15U G43C, 0.125. As for G16C A22U, the self-cleavage was determined as 0.21. In the case of G16A G24A it was 0.0954.
